Data reported in the supplement of paper PMC9170038.

Tested on: K4 kissing-loop RNA reporter
Test: apparent KD of K4 kissing-loop reporter; higher = weaker reporter binding
Conditions: Eterna round: R107
Protocol: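 RNA-MaP round R107: designed RNA switches with theophylline, tryptophan, arginine or FMN aptamers are transcribed on-chip within common flanks. They are titrated with a labelled K4 kissing-loop RNA reporter in RNA-MaP buffer (100 mM Tris pH 7.5, 80 mM KCl, 4 mM MgCl2), without ligand or with the indicated ligand. Median apparent KD per design.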

[1] = input ligand: theophylline 20 uM
[2] = input ligand: tryptophan 2.4 mM
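Also: bound reporter read as fluorescence of individual clusters on recovered sequencing chips by microscopy, with normalized cluster intensities fitted with a binding model.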

GUUACGCAUGGAAGGAGCGCUCUCCGGCUUAAUAACACAGUGAUGUUGUGAAUUUGCCGAAAGCAGGUAGGUCGCCAUGUGUAAC [Ex Arginine B K4 10]
apparent KD of K4 kissing-loop reporter (input ligand: FMN 200 uM): 474 nM
apparent KD of K4 kissing-loop reporter (input ligand: arginine 13.2 mM): 359 nM
apparent KD of K4 kissing-loop reporter (input ligand: none): 453 nM
apparent KD of K4 kissing-loop reporter [1]: 435 nM
apparent KD of K4 kissing-loop reporter [2]: 413 nM

GUUUGGCUCCGAAGACGGCAGUGGGAAAUAUAGGAUAUCUAGAAAUAGAGAAGGAUACUAGUGAUGUUAGUAUCGGAUAAAACAA
apparent KD of K4 kissing-loop reporter (input ligand: FMN 200 uM): 85.9 nM
apparent KD of K4 kissing-loop reporter (input ligand: arginine 13.2 mM): 76.3 nM
apparent KD of K4 kissing-loop reporter (input ligand: none): 73 nM
apparent KD of K4 kissing-loop reporter [1]: 83.7 nM
apparent KD of K4 kissing-loop reporter [2]: 79.8 nM

GUUUUAUAGGAGGAUACCAGUACAAAUAAAGUGCAUUAAUAGUAGAGUGAUGUUCUAAAGUACCCUUGGCAGCUUAGUUUAAGUU [#26 K4 Theophylline B Exclusion]
apparent KD of K4 kissing-loop reporter (input ligand: FMN 200 uM): 151 nM
apparent KD of K4 kissing-loop reporter (input ligand: arginine 13.2 mM): 278 nM
apparent KD of K4 kissing-loop reporter (input ligand: none): 185 nM
apparent KD of K4 kissing-loop reporter [1]: 357 nM
apparent KD of K4 kissing-loop reporter [2]: 100 nM

UAACGGCCCAGUGAUGUUGGGUGGAGGCGGCGAGGACCGGUACGGCCGCCACUCGGCGCACAGGCGGAGUGAUGUUGCGCGUAAA [Same State Tryptophan A GF 13]
apparent KD of K4 kissing-loop reporter (input ligand: FMN 200 uM): 242 nM
apparent KD of K4 kissing-loop reporter (input ligand: arginine 13.2 mM): 164 nM
apparent KD of K4 kissing-loop reporter (input ligand: none): 319 nM
apparent KD of K4 kissing-loop reporter [1]: 182 nM
apparent KD of K4 kissing-loop reporter [2]: 215 nM

UAACUGAAGUGAUGUUUCAGUUCGUCGGAUACCAGUGCCGAUCAUCACCCUUGGCAGCCGUAAUAUUACUUAACAAUGACAGGUU [theeternabot_exclusion_KL_Theo_A_7]
apparent KD of K4 kissing-loop reporter (input ligand: FMN 200 uM): 122 nM
apparent KD of K4 kissing-loop reporter (input ligand: arginine 13.2 mM): 107 nM
apparent KD of K4 kissing-loop reporter (input ligand: none): 118 nM
apparent KD of K4 kissing-loop reporter [1]: 119 nM
apparent KD of K4 kissing-loop reporter [2]: 108 nM

UAAGUGAUUCACAAGCUAGAGUUACUCGAAGGAGCGACGAAUUCGUCAGGUAGGUCGCGAGUGAUGUUCGCAUGCUCUAGCAAAU [AK1 Exc Arginine A]
apparent KD of K4 kissing-loop reporter (input ligand: FMN 200 uM): 655 nM
apparent KD of K4 kissing-loop reporter (input ligand: arginine 13.2 mM): 681 nM
apparent KD of K4 kissing-loop reporter (input ligand: none): 704 nM
apparent KD of K4 kissing-loop reporter [1]: 689 nM
apparent KD of K4 kissing-loop reporter [2]: 650 nM

UACAAACGUAGUGAUGUUACGUACUCUGAUACCAGACAAGUGUAAGUCCCUUGGCAGCAGUCAUUUUGCUUAUUAUUUUCUCAAA [JR_ExcTheophyA_Sub019]
apparent KD of K4 kissing-loop reporter (input ligand: FMN 200 uM): 70.1 nM
apparent KD of K4 kissing-loop reporter (input ligand: arginine 13.2 mM): 88.1 nM
apparent KD of K4 kissing-loop reporter (input ligand: none): 74.1 nM
apparent KD of K4 kissing-loop reporter [1]: 86.4 nM
apparent KD of K4 kissing-loop reporter [2]: 68.1 nM

UACUAGUGAAACUAGUAGGUGCUAGGUGAAGGAGCGAUCGAAAGAUCAGGUAGGUCGCACCUUCCUGAGUGAUGUUCAGGUAAUA [KL-SSArg-A3]
apparent KD of K4 kissing-loop reporter (input ligand: FMN 200 uM): 47.2 nM
apparent KD of K4 kissing-loop reporter (input ligand: arginine 13.2 mM): 29.6 nM
apparent KD of K4 kissing-loop reporter (input ligand: none): 44.5 nM
apparent KD of K4 kissing-loop reporter [1]: 59.1 nM
apparent KD of K4 kissing-loop reporter [2]: 40.9 nM

UAGCAUUUGCUCGAGUGAUGUUCGAGCGAAGGAGCGCGAGAAAUCGCAGGUAGGUCGCGCUCGAACUAUGAGCGAUCAUUUAUUA [Arg A Ex t2c]
apparent KD of K4 kissing-loop reporter (input ligand: FMN 200 uM): 284 nM
apparent KD of K4 kissing-loop reporter (input ligand: arginine 13.2 mM): 217 nM
apparent KD of K4 kissing-loop reporter (input ligand: none): 244 nM
apparent KD of K4 kissing-loop reporter [1]: 463 nM
apparent KD of K4 kissing-loop reporter [2]: 370 nM

UAUAGAGUGACGGCCGCCACUAUUGUGAUUUAAUUGUUAGAGUGAUGUUUUGAUGUUUGAUUUUGUAGGACCGGGUUAUAUGUUA [wwwzmullin]
apparent KD of K4 kissing-loop reporter (input ligand: FMN 200 uM): 1090 nM
apparent KD of K4 kissing-loop reporter (input ligand: arginine 13.2 mM): 720 nM
apparent KD of K4 kissing-loop reporter (input ligand: none): 890 nM
apparent KD of K4 kissing-loop reporter [1]: 795 nM
apparent KD of K4 kissing-loop reporter [2]: 718 nM

UAUCAGAUUACUGAUACCAGUCUAAAGACAGUGAUGUUGUCUGAUCGACCACGAUCAAAGGACCCUUGGCAGCAGUAUACUAUUC [Theo B SS t5]
apparent KD of K4 kissing-loop reporter (input ligand: FMN 200 uM): 163 nM
apparent KD of K4 kissing-loop reporter (input ligand: arginine 13.2 mM): 157 nM
apparent KD of K4 kissing-loop reporter (input ligand: none): 157 nM
apparent KD of K4 kissing-loop reporter [1]: 164 nM
apparent KD of K4 kissing-loop reporter [2]: 158 nM

UAUCCUCGCUGAAGGAGCGAGCAUGAAGCAGUGAUGUUCCGAGCGAGUGAUGUUCGCAUAGCUCAGGUAGGUCGCAGUGGGAUUU [Same State Arginie B GF 17]
apparent KD of K4 kissing-loop reporter (input ligand: FMN 200 uM): 795 nM
apparent KD of K4 kissing-loop reporter (input ligand: arginine 13.2 mM): 749 nM
apparent KD of K4 kissing-loop reporter (input ligand: none): 1030 nM
apparent KD of K4 kissing-loop reporter [1]: 517 nM
apparent KD of K4 kissing-loop reporter [2]: 530 nM

UAUCUAUGCUCGGCCGCCACUAGGACCGGGAGGUAACUAGUGAUGUUAGUAUCUUCGGCCGCCACUAGGACCGGGAGUGUAGAUA [KL-SSTryp-B17 #DoubleAptamer]
apparent KD of K4 kissing-loop reporter (input ligand: FMN 200 uM): 115 nM
apparent KD of K4 kissing-loop reporter (input ligand: arginine 13.2 mM): 95.2 nM
apparent KD of K4 kissing-loop reporter (input ligand: none): 92.7 nM
apparent KD of K4 kissing-loop reporter [1]: 95.5 nM
apparent KD of K4 kissing-loop reporter [2]: 74.6 nM

UAUCUUUGCUGAAGGAGCGAGCAUGUUGGAGUGAUGUUCCGUGCGAGUGAUGUUCGCAUAGCUCAGGUAGGUCGCAGUGGGAGGA [KL-SSArg B29]
apparent KD of K4 kissing-loop reporter (input ligand: FMN 200 uM): 120 nM
apparent KD of K4 kissing-loop reporter (input ligand: arginine 13.2 mM): 94.7 nM
apparent KD of K4 kissing-loop reporter (input ligand: none): 105 nM
apparent KD of K4 kissing-loop reporter [1]: 157 nM
apparent KD of K4 kissing-loop reporter [2]: 86.2 nM

UAUUGAGUGAUGUUCGAUAACCAAUCAGAUACCAGUUUUGUAGAAAACCCUUGGCAGCUGCUCAGCUCUAUAAUGCUUCGCCCUU [theeternabot_sameState_KL_Theo_A_18]
apparent KD of K4 kissing-loop reporter (input ligand: FMN 200 uM): 199 nM
apparent KD of K4 kissing-loop reporter (input ligand: arginine 13.2 mM): 169 nM
apparent KD of K4 kissing-loop reporter (input ligand: none): 208 nM
apparent KD of K4 kissing-loop reporter [1]: 184 nM
apparent KD of K4 kissing-loop reporter [2]: 177 nM

UAUUGAUUGUCAGGAUAUCGUAAACGAGUGAUGUUCGUAUAUUGACGAUAGUCAAUUCUAUCUGAACGAGAAGGGACAUUAUUUA [JR_SSFMNB_Sub009]
apparent KD of K4 kissing-loop reporter (input ligand: FMN 200 uM): 318 nM
apparent KD of K4 kissing-loop reporter (input ligand: arginine 13.2 mM): 301 nM
apparent KD of K4 kissing-loop reporter (input ligand: none): 389 nM
apparent KD of K4 kissing-loop reporter [1]: 351 nM
apparent KD of K4 kissing-loop reporter [2]: 308 nM

UAUUUAAAUAAAAUAAAAUAAAUUGCUGAUACCAGAGUCAAUUGACUCCCUUGGCAGCGGAUCGAGUGAUGUUCGUAAAAUUUAU [AK2.1 SS Theophylline A]
apparent KD of K4 kissing-loop reporter (input ligand: FMN 200 uM): 27.4 nM
apparent KD of K4 kissing-loop reporter (input ligand: arginine 13.2 mM): 57.7 nM
apparent KD of K4 kissing-loop reporter (input ligand: none): 30.8 nM
apparent KD of K4 kissing-loop reporter [1]: 58.5 nM
apparent KD of K4 kissing-loop reporter [2]: 31.9 nM

UCACUACACUGAAGGAGCGUGAGGAGACUAGUGAUGUUGGUCAGAUUCUAUGAUCGUAACUCACAGGUAGGUCGCAGUGUAGUGU [Arg B SS t7]
apparent KD of K4 kissing-loop reporter (input ligand: FMN 200 uM): 514 nM
apparent KD of K4 kissing-loop reporter (input ligand: arginine 13.2 mM): 341 nM
apparent KD of K4 kissing-loop reporter (input ligand: none): 518 nM
apparent KD of K4 kissing-loop reporter [1]: 378 nM
apparent KD of K4 kissing-loop reporter [2]: 476 nM

UCAUGAGAGACGGCCGCCACUGAAGCAGCUCUGUAAGAGCUGCAACAGUAGAGUGAUGUUCUGCGCAGGACCGGGUCGUCAUGAA [KL-SSTryp-B9]
apparent KD of K4 kissing-loop reporter (input ligand: FMN 200 uM): 513 nM
apparent KD of K4 kissing-loop reporter (input ligand: arginine 13.2 mM): 206 nM
apparent KD of K4 kissing-loop reporter (input ligand: none): 398 nM
apparent KD of K4 kissing-loop reporter [1]: 352 nM
apparent KD of K4 kissing-loop reporter [2]: 450 nM

UCCUAGGUCUUCAGGCGAAAGCCCUGCGAAGGAGCGUGCGAAAGCACAGGUAGGUCGCGCAGUGAUGUUGCACCUAGGUAAUAAA [#SwitchBubble 21 #K4Late]
apparent KD of K4 kissing-loop reporter (input ligand: FMN 200 uM): 843 nM
apparent KD of K4 kissing-loop reporter (input ligand: arginine 13.2 mM): 111 nM
apparent KD of K4 kissing-loop reporter (input ligand: none): 268 nM
apparent KD of K4 kissing-loop reporter [1]: 115 nM
apparent KD of K4 kissing-loop reporter [2]: 140 nM

UCCUGCAAUCGACCACGAAAGUGGAUUGAUACCAGAGUCGAAAGACUCCCUUGGCAGCGAGUGAUGUUCGAAGCAGGUAAAUAAA
apparent KD of K4 kissing-loop reporter (input ligand: FMN 200 uM): 626 nM
apparent KD of K4 kissing-loop reporter (input ligand: arginine 13.2 mM): 455 nM
apparent KD of K4 kissing-loop reporter (input ligand: none): 539 nM
apparent KD of K4 kissing-loop reporter [1]: 457 nM
apparent KD of K4 kissing-loop reporter [2]: 426 nM

UCCUGUUGUCAGCCACGAAAGUGGAUUGAUACCAGAGUCGAAAGACUCCCUUGGCAGCGAGUGAUGUUCGCAGCAGGUAAAUAAA [MatMod 4 - Jieux - Exclusion - Theophylline A]
apparent KD of K4 kissing-loop reporter (input ligand: FMN 200 uM): 211 nM
apparent KD of K4 kissing-loop reporter (input ligand: arginine 13.2 mM): 157 nM
apparent KD of K4 kissing-loop reporter (input ligand: none): 209 nM
apparent KD of K4 kissing-loop reporter [1]: 207 nM
apparent KD of K4 kissing-loop reporter [2]: 178 nM
